Results taken from paper PMC12494564, “CLIC5A binds to and stabilizes the open and active conformation of ezrin” (The Journal of Biological Chemistry, 2025).

Target: GST-His6x-CLIC5A (human, UniProt Q9NZA1-2 1-251, fluorescent label from the Monolith His-Tag Labeling Kit RED-tris-nitriloacetic acid)
Test: MST; 100 nM fluorescently labeled (RED-tris-NTA) GST-His6x-CLIC5A or GST-His6x, unlabeled ezrin_(482-586) from 412 μM to 12.6 nM in the labeling buffer; Monolith NT.115, ambient temperature, 40% MST power, 30% LED power
Details: both partners purified

Sequence of GST-His6x-CLIC5A (Q9NZA1 other isoform, or with tags, fused parts or gaps): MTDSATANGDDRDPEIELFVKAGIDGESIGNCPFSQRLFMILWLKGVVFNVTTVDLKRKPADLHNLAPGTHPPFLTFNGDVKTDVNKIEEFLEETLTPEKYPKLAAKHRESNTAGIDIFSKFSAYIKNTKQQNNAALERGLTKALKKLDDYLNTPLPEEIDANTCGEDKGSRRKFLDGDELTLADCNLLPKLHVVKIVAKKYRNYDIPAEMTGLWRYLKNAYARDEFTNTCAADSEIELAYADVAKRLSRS

Kd: 29 µM
B1: ezrin_(482-586) (H549N/T567E) (domain or fragment, human, UniProt P15311 482-586, looked up)
chain: SYHVQESLQDEGAEPTGYSAELSSEGIRDDRNEEKRITEAEKNERVQRQLLTLSSELSQARDENKRTNNDIIHNENMRQGRDKYKELRQIRQGNTKQRIDEFEAL
notes: ezrin, human; Expression plasmid created by ATUM; not shown: PagP, N-terminal, cleaved
